Experimental data as given in patent US20210147541A1 (Kyowa Kirin, published 2021).
Where a chain is given by its changes, count along the chain named. Numbers in names are those of the source. Like-named read-outs stand apart in the source and are kept apart here.

T1: human CADM3 (human, UniProt Q8N126 25-398)
T1 construct: Full-length gene expressed transiently on Expi293F cells; also called cell adhesion molecule 3; human CADM3/Expi293F cells
T1 sequence: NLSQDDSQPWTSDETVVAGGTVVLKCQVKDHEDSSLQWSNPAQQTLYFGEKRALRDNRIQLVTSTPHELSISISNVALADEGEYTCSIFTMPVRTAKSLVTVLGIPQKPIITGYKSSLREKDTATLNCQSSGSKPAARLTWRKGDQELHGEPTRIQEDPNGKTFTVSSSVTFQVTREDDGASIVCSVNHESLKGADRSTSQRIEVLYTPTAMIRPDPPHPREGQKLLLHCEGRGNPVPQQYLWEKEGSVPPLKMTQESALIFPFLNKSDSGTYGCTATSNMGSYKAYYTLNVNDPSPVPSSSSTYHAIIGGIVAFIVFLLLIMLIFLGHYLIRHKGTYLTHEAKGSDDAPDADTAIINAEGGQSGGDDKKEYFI

T2: mouse CADM3 (mouse, UniProt Q99N28 23-396)
T2 construct: Full-length gene expressed transiently on Expi293F cells; also called mouse CADM3/Expi293F cells; Mouse CADM3-expressing cells
T2 sequence: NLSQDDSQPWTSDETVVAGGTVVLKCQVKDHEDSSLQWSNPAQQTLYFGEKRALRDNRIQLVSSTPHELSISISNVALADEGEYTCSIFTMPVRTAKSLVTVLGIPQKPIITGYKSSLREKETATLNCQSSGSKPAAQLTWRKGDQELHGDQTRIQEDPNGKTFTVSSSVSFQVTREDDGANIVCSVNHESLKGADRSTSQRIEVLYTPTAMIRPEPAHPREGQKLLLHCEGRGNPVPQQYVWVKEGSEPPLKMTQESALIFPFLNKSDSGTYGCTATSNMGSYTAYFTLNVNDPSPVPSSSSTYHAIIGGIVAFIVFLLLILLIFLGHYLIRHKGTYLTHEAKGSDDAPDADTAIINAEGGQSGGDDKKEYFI

B1: CADM3351 hG4PE(R409K) (antibody, V domains shown)
VH: EVQLLQSGGGLVQPGGSLRLSCAASGLIFSDHYMDWVRQAPGKGLEWVGSIRNKRNGGSTEYAASVKGRFSISRDDSKNSLYLQMNSLKTEDTAMYFCATTRTGYQGFYGMDVWGQGTTVTVSS
VL: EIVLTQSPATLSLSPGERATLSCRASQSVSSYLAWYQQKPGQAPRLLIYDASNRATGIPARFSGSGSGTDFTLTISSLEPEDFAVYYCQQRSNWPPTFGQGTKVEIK
notes: Human IgG4 variant (S228P, L235E, R409K), vector pCI-hKG4PE(R409K)
B2: CADM3314 hG4PE(R409K) (antibody, V domains shown)
VH: QVQLVESGGGVVQPGGSLRLSCAASGFSFNNHGMHWVRQAPGKGLEWVTFIRFDGSSKYYADSVKGRFTISRDNSKNTVYLEMNSLRAEDTGVYYCVNTPRGWSFDIWGRGTLVTVSS
VL: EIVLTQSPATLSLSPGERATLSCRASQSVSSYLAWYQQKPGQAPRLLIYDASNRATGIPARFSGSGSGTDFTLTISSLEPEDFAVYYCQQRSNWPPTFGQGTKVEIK
notes: as for B1
B3: CADM3349 hG4PE(R409K) (antibody, V domains shown)
VH: QVQLQQWGGGLLTPSETLSLSCDVSGGAFTNYHWTWIRQPPGKGLEWIGEIFHTGTTNYNPSLQGRVAMSIDTTKRQFFLRLTSLTAADTAVYYCARVGKYGWYVGDFWGQGTTVTVSS
VL: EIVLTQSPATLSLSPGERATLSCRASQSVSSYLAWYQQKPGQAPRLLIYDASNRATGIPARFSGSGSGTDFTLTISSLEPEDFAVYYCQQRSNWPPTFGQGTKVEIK
notes: as for B1
B4: CADM3501 hG4PE(R409K) (antibody, V domains shown)
VH: EVQLVESGGGLVQPGGALRLSCSASGFTFSGYWMHWVRQAPGKGLEWVSQISSSGTIIDSADFVKGRFAVSRDNAKDLLYLQMNSLRADDTAVYYCARGPLAKNGFDIWGQGTMVTVSS
VL: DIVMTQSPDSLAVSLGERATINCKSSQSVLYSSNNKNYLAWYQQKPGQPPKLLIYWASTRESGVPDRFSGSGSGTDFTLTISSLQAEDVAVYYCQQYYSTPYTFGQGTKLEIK
notes: as for B1
B5: iCADM3_3R1-L8 VHH-hG4PE(R409K) (Fc fusion)
chain: QVQLVESGGGLVQPGGSLRLSCAASGRTFSNYARGWFRQAPGKEREFVAAIDYSGGSTNYADSAKGRFTISRDNAKNTVYLQMNSLKPGDTAVYYCAAPASRRPSWDADGYDYWGQGTQVTVSS
notes: VHH-Fc antibody; also called anti-CADM3 VHH-Fc antibody iCADM3_3R1-L8; not shown: Hinge-CH2-CH3 region of the human IgG4 heavy chain constant region (IgG4 variant)
B6: iCADM3_3R1-L11_02 VHH-hG4PE(R409K) (Fc fusion)
chain: EVQLVESGGGLIQPGGSLRLSCAASGSTVSFNAMGWYRQAPGKGRVLVAVITSGGYTNYADSVKGRFTISRDNSKNTVYLQMNSLRAEDTAVYYCNAEGVYSDYVIMNYWGQGTLVTVSS
notes: also called iCADM3-3R1-L11_02 humanized antibody; not shown: Hinge-CH2-CH3 region of the human IgG4 heavy chain constant region (IgG4 variant)
B7: iCADM3_3R1-L11_06 VHH-hG4PE(R409K) (Fc fusion)
chain: B6 chain with E1Q, I12V, P14A, T28I, V29F, G44Q, V46G, Y79F
notes: also called iCADM3-3R1-L11_06 humanized antibody; not shown: Hinge-CH2-CH3 region of the human IgG4 heavy chain constant region (IgG4 variant)
B8: iCADM3_3R1-L11_03 VHH-hG4PE(R409K) (Fc fusion)
chain: B6 chain with G44Q, V46G, A49S
notes: also called iCADM3-3R1-L11_03 humanized antibody; not shown: Hinge-CH2-CH3 region of the human IgG4 heavy chain constant region (IgG4 variant)
B9: iCADM3_3R1-L11_01 VHH-hG4PE(R409K) (Fc fusion)
chain: B6 chain with R45L, V46G, V78L, Y79F
notes: also called iCADM3-3R1-L11_01 humanized antibody; not shown: Hinge-CH2-CH3 region of the human IgG4 heavy chain constant region (IgG4 variant)

Key:
[1] = molecular target: T3, hCADM3-GST (human); experiment: SPR (Biacore T-100), antibody captured, hCADM3-GST as analyte
T3 construct: also called extracellular domain of human CADM3 to which GST was added at the C-terminal side; human CADM3-GST
Protocol: (§1) The affinity of the anti-CADM3 antibodies produced in Example 2 for human CADM3 and mouse CADM3 was measured using Biacore T-100 (GE Healthcare). Each of the antibodies was immobilized on a […] sensor chip using a Human antibody Capture kit, and the binding ability was evaluated using hCADM3-GST and mCADM3-GST produced in Example 4 as analytes.
(§2) The obtained sensorgram was analyzed with BIA evaluation software, and the dissociation constant (KD value) was calculated.

[2] = molecular target: T1, human CADM3; experiment: flow cytometry, 10 ug/mL, human CADM3/Expi293F vs parent Expi293F cells
Protocol: By using the cells, the reactivity of the antibodies produced in Example 2 with the CADM3-expressing cells was analyzed by a fluorescence activated cell sorting (FACS) method according to the following procedure.
(§3) After washing with SB, the cells were suspended in SB, and the fluorescence intensity of each cell was measured using a flow cytometer FACS CANTO II (manufactured by Becton, Dickinson and Company). Note that as a negative control, 10 μg/mL of the anti-AVM antibody was used.
(§4) The detection results were analyzed, and a mean fluorescence intensity (MFI) was calculated using a geometric mean. Further, with respect to the MFI when the concentration of each antibody was 10 μg/mL, the ratio of the MFI (mean fluorescence intensity ratio) between the human CADM3/Expi293F cells and the Expi293F cells (parent cell line) was calculated.

[3] = molecular target: T4, mCADM3-GST (mouse); experiment: SPR (Biacore T-100), antibody captured, mCADM3-GST as analyte
T4 construct: also called extracellular domain of mouse CADM3 to which GST was added at the C-terminal side; mouse CADM3-GST
Protocol: as §1, §2

[4] = molecular target: T2, mouse CADM3; experiment: flow cytometry, 10 ug/mL, mouse CADM3/Expi293F vs parent Expi293F cells
[5] = molecular target: T4, mCADM3-GST; experiment: SPR (Biacore T-100), antibody captured, mCADM3-GST as analyte; remark: listed apart in the source
Protocol: as §1
(§5) With respect to the produced humanized anti-CADM3 antibodies, affinity for CADM3 by surface plasmon resonance detection was evaluated by the same procedure as in Example 6.

[6] = molecular target: T3, hCADM3-GST; experiment: SPR (Biacore T-100), antibody captured, hCADM3-GST as analyte; remark: listed apart in the source
Protocol: as §1, §5

[7] = molecular target: T2, mouse CADM3; experiment: flow cytometry, 10 ug/mL, mouse CADM3/Expi293F vs parent Expi293F cells; remark: listed apart in the source
Protocol: as §3, §4
(§6) With respect to the produced humanized anti-CADM3 VHH-Fc antibodies, reactivity with Expi293F cells, human CADM3/Expi293F cells, and mouse CADM3/Expi293F cells was analyzed by the same procedure as in Example 3.

[8] = molecular target: T1, human CADM3; experiment: flow cytometry, 10 ug/mL, human CADM3/Expi293F vs parent Expi293F cells; remark: listed apart in the source
Protocol: as §3, §4, §6

Binder	binding result [1]	Mean fluorescence intensity ratio [2]	binding result [3]	Mean fluorescence intensity ratio [4]	Mean fluorescence intensity ratio [7]	Mean fluorescence intensity ratio [8]	further results
B1	binds	8.2	binds	8.8			
B2	binds	10	binds	9.2			
B3	binds	4.8	binds	48.7			
B4	binds	44.9	binds	36.1			
B5		5.84		8.2			Kd [5]: 4.39 nM; koff [5]: 0.00063 s⁻¹; kon [5]: 140000 M⁻¹ s⁻¹; Kd [6]: 12.5 nM; koff [6]: 0.00051 s⁻¹; kon [6]: 41000 M⁻¹ s⁻¹
B6					27.9	12.4	
B7					42.2	33	
B8					33.8	24.4	
B9					12.5	12.2	
